For test [1], the target named is human fibrinogen (human) (UniProt P02671). The test is described as follows: ELISA, GST-tagged fragment on immobilized Fg.
Test [2] shares this target. The test can be described thus: ELISA on coated Fg; Km = protein concentration at half of the maximum; R2 0.986. (In an ELISA, binding on a coated surface is turned into a signal by an enzyme label.)
The target is the same in test [3]. The test can be described thus: ELISA on coated Fg; Km = protein concentration at half of the maximum; R2 0.991.
Test [4] has the same target. The test is described as follows: ELISA, GST-tagged fragment on immobilized Fg; apparent affinity.
Test [5] has the same target. The test can be described thus: solid phase binding assay, Efb coated, Fg titrated; apparent KD; Efb coated on the well, fibrinogen titrated.
Test [6] shares this target. The test can be described thus: ELISA on coated Fg; Km = protein concentration at half of the maximum; R2 0.995.
Test [7] addresses Fibrinogen-D fragment (human) (UniProt P02671). The test is described as follows: ITC (VP-ITC), peptide titrated into 10 µM Fg-D, one-site model.
In test [8] the target is human fibrinogen (human) (UniProt P02671). The test can be described thus: competition ELISA on coated Fg; competitor 4 nM rCoa-C GST fusion.
The target of test [9] is Fibrinogen-D fragment (human) (UniProt P02671). The test can be described thus: isothermal titration calorimetry, peptide into 10 µM Fg-D, one-site model.
Chain of Fibrinogen-D fragment (human) (P02671 130-216 limits assumed, chain 1 of 3): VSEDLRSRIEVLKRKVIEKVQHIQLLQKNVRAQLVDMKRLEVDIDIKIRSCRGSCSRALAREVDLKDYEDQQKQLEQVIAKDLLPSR
Chain of Fibrinogen-D fragment (human) (P02675 164-491 limits assumed, chain 2 of 3, further chain): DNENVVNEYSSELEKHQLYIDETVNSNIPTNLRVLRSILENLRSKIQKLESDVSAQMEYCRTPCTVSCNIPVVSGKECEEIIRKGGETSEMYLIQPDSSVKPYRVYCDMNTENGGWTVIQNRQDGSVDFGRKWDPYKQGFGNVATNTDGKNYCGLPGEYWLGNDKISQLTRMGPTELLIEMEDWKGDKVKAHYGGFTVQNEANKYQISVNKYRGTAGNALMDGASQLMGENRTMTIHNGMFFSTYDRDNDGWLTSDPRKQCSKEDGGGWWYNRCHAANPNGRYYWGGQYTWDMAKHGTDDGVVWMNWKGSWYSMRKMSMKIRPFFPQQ
Chain of Fibrinogen-D fragment (human) (P02679 114-432 limits assumed, chain 3 of 3, further chain): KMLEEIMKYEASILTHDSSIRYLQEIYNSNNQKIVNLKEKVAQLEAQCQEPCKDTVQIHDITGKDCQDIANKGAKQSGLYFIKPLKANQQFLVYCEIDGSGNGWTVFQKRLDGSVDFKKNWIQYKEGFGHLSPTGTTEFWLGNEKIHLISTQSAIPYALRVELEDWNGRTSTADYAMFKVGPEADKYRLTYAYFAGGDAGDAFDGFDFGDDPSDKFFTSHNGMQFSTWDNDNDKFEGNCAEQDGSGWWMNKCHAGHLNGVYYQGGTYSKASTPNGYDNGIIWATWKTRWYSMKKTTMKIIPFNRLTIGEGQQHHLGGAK
The target is the same in test [10]. The test can be described thus: ITC (VP-ITC), fit box Model: OneSites beside the isotherm.
The target is the same in test [11]. The test can be described thus: ITC (VP-ITC), fit box Model: OneSites beside the isotherm; unit not given.
The target in test [12] is human fibrinogen (human) (UniProt P02671). The test can be described thus: competition ELISA on coated Fg; competitor 2 nM rEfb-N GST fusion.
Test [13] shares this target. The test is described as follows: competition ELISA on coated Fg; competitor 2 nM rCoa-C GST fusion.

Chain of human fibrinogen (human) (P02671 20-629 limits assumed, form in doubt, chain 1 of 3): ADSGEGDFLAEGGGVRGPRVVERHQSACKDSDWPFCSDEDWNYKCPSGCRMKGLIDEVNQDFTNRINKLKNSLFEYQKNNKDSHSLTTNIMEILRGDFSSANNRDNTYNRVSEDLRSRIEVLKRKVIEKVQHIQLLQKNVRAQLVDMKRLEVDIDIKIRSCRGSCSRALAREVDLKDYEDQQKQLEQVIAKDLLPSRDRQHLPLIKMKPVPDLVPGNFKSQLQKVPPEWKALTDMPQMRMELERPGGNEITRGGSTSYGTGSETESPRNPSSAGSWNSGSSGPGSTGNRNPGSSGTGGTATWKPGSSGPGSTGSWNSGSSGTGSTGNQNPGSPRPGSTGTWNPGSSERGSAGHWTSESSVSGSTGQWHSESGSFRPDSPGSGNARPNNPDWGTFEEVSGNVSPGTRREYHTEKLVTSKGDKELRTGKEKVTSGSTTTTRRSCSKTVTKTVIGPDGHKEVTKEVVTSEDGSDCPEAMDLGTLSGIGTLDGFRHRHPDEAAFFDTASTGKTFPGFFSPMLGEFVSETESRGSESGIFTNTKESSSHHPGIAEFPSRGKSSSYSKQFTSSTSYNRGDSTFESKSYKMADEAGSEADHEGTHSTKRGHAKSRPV
Chain of human fibrinogen (human) (P02675 31-491 limits assumed, form in doubt, chain 2 of 3, further chain): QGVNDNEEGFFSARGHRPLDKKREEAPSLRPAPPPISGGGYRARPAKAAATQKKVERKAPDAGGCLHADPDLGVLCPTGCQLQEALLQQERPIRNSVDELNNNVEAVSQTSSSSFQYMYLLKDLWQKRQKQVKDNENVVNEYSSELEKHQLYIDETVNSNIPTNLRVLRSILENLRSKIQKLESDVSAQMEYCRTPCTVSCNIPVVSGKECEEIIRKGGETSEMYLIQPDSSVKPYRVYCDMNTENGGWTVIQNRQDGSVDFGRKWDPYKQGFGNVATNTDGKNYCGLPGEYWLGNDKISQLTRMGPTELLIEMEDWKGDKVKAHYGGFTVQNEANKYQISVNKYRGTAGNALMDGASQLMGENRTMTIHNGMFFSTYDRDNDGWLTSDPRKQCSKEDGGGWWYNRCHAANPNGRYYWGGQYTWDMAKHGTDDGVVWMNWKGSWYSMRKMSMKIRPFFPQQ
Chain of human fibrinogen (human) (P02679 27-453 limits assumed, form in doubt, chain 3 of 3, further chain): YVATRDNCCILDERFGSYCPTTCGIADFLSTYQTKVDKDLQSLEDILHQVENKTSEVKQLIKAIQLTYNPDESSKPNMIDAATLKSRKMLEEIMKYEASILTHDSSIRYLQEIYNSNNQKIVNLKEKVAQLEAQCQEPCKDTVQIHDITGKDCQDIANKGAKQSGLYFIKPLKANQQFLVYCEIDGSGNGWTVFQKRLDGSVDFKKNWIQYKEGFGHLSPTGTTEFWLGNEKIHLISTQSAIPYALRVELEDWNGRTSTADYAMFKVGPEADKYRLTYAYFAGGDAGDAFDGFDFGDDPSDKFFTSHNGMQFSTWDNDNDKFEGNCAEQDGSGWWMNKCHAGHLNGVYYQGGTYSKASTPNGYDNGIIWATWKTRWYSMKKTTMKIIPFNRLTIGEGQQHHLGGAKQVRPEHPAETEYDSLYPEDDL

As usually defined, the EC50 is the concentration needed to bring the measured effect to its halfway point. Read a low EC50 as a more potent agent. “Coa-C (Coa 311-636) (from UniProt P08515 1-218)” had an EC50 in the test with human fibrinogen (human) [1] of 0.0075 µM.
Broadly, the Km is the concentration of substrate that gives half-maximal velocity. Turning to “Coa-F (Coa 311-505) (from UniProt P08515 1-218)”, the Km with human fibrinogen (human) [2] is 3.2 nM.
Take “Coa-N (Coa 27-310) (from UniProt P08515 1-218)”: the Michaelis constant (Km) in the test with human fibrinogen (human) [3] came to 204 nM.
As to Coa-R (Coa 506-636), the Kd with human fibrinogen (human) [4] was 0.0008 µM.
Consider “Extracellular fibrinogen binding protein (Efb), full-length secreted form 30-165, His-tagged (from UniProt A6QG59 30-165)”, for which, in the test with human fibrinogen (human) [5], the Kd stood at 0.001 µM.
As for “recombinant Coagulase, Coa (27-636) (from UniProt P08515 1-218)”, the Km in the test with human fibrinogen (human) [6] worked out at 8.9 nM.
As to sCoa-RI3 (Coa 502-528) (peptide), the N (binding ratio) in test [7] came to 0.9. In the test with human fibrinogen (human) [8], the IC50 (read off the curve) was determined as 10 µM. In addition, in [9], the Kd worked out at 0.124 µM.
For sCoa-RV1 (Coa 610-636) (peptide), in [10], the N (binding ratio) amounted to 0.679. In addition, the N (binding ratio) in test [7] was found to be 0.68. Moreover, the IC50 (read off the curve) in the test with human fibrinogen (human) [8] amounted to 10 µM. In test [9], this substance gave a Kd of 0.139 µM. In test [11], this substance returned a ΔH of -39800 and a ΔS of -101.
For synthetic peptide Coa-O (Coa 474-505), the IC50 (read off the curve) with human fibrinogen (human) [12] is 2 to 3 µM; with human fibrinogen (human) [13], 9 µM.
As for synthetic peptide Coa-RI (Coa 506-532), the IC50 (read off the curve) with human fibrinogen (human) [13] turned out to be 3 µM. This substance displayed a binding stoichiometry in [9] of 0.93.

These data come from patent US20200283508A1.
